In patent publication US20120328625A1:

Key:
[1] = biological target: full length human Shh expressed on the cell surface (human) (UniProt Q15465); experiment: cell-based or functional assay
[2] = biological target: Shh-N in conditioned medium (human) (UniProt Q15465); experiment: cell-based or functional assay

B1: rmHIP (protein, UniProt Q7TN16 18-678, looked up)
chain: FFEGDAKFGERNEGSGARRRRCLNGNPPKRLKRRDRRVMSQLELLSGGEILCGGFYPRVSCCLQSDSPGLGRLENKIFSATNNSECSRLLEEIQCAPCSPHSQSLFYTPERDVLDGDLALPLLCKDYCKEFFYTCRGHIPGLLQTTADEFCFYYARKDAGLCFPDFPRKQVRGPASNYLGQMEDYEKVGGISRKHKHNCLCVQEVMSGLRQPVSAVHSGDGSHRLFILEKEGYVKILTPEGELFKEPYLDIHKLVQSGIKGGDERGLLSLAFHPNYKKNGKLYVSYTTNQERWAIGPHDHILRVVEYTVSRKNPHQVDVRTARVFLEVAELHRKHLGGQLLFGPDGFLYIILGDGMITLDDMEEMDGLSDFTGSVLRLDVDTDMCNVPYSIPRSNPHFNSTNQPPEVFAHGLHDPGRCAVDRHPTDININLTILCSDSNGKNRSSARILQIIKGRDYESEPSLLEFKPFSNGPLVGGFVYRGCQSERLYGSYVFGDRNGNFLTLQQSPVTKQWQEKPLCLGASSSCRGYFSGHILGFGEDELGEVYILSSSKSMTQTHNGKLYKIVDPKRPLMPEECRVTVQPAQPLTSDCSRLCRNGYYTPTGKCCCSPGWEGDFCRIAKCEPACRHGGVCVRPNKCLCKKGYLGPQCEQVDRNVRRVTR
Q: B1 was tested. Which % Inhibition of Gli1 reporter, Co-Culture N = 1, 4 µg/ml [1] did it give?
A: The % Inhibition of Gli1 reporter, Co-Culture N = 1, 4 µg/ml was 124%.

Q: What about the % Inhibition of Gli1 reporter, Co-Culture N = 2, 4 µg/ml [1] of the same binder?
A: Its % Inhibition of Gli1 reporter, Co-Culture N = 2, 4 µg/ml is 96%.

Q: And the % Inhibition of Gli1 reporter, Co-Culture N = 3, 4 µg/ml [1]?
A: Its % Inhibition of Gli1 reporter, Co-Culture N = 3, 4 µg/ml is 121%.

Q: And the % Inhibition of Gli1 reporter, Conditioned Media N = 1, 4 µg/ml [2]?
A: The % Inhibition of Gli1 reporter, Conditioned Media N = 1, 4 µg/ml was 103%.

Q: And the % Inhibition of Gli1 reporter, Conditioned Media N = 2, 4 µg/ml [2]?
A: The % Inhibition of Gli1 reporter, Conditioned Media N = 2, 4 µg/ml was 112%.
